The target of test [1] is T1, EL4 cell receptors (IL-1 receptor) (Mus musculus, UniProt P13504).
T1 construct: incubating EL.4 thymoma cells; endogenous in cells; host or cells: EL.4 thymoma cells
T1 sequence (P13504 20-576): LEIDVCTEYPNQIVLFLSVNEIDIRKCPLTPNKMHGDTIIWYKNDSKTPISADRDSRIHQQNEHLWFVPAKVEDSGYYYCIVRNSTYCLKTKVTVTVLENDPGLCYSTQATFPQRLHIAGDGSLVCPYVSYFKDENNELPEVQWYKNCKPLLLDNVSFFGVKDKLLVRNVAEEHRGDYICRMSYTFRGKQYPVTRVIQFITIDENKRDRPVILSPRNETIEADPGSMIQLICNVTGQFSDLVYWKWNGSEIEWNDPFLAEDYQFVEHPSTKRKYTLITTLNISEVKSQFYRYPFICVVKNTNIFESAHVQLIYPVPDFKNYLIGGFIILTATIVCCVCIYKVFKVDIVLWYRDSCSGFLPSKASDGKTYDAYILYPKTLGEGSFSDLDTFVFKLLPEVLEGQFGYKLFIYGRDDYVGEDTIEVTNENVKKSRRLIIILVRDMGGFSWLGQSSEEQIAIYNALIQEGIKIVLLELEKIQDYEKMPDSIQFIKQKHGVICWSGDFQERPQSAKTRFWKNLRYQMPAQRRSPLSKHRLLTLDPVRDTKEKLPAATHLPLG
In words: Competitive receptor binding against [35S]-labeled mature IL-1β on EL.4 thymoma cells. Details: species or system murine. The conditions noted are these: 37° C., concentrations up to a five-fold molar excess, FIG. 4. Here is the method: FIG. 4. Competitive receptor binding. A constant amount of radioactive mature IL-1β protein was added to 1.9×10^7 EL.4 cells in binding medium. The results are presented as a percentage of radioactive IL-1β which bound specifically in the absence of competitor. The 100% value represents approximately 30,000 cpm.
As a further analysis of the receptor binding properties, nonradioactive proteins were used to complete with [^35 S]-labeled wild-type mature IL-1β for binding to EL4 cell receptors (FIG. 4). Competitive receptor binding was performed by incubating EL.4 thymoma cells at 37° C. in the presence of a constant level of [^35 S]-labeled mature IL-1β protein and increasing concentrations of non-radioactiveIL-1β competitor translation products. […] The amount of IL-1β protein synthesized by in vitro translation was determined by specific radioactivity using a radioactive IL-1β protein standard which was quantitated by radioimmune assay. […] The cells were solubilized in lysis buffer (50 mM sodium phosphate, pH 7; 10 mM ethylenediaminetetraacetic acid (EDTA); 0.1% TRITON™ X-100; 0.1% sarkosyl; 10 mM β-mercaptoethanol) before quantitation of bound radioactivity by liquid scintillation counting. […]

Test [2] relates to helper T-cells (D10.G4.1). In words: Biological activity: [3H]thymidine incorporation by helper T-cells (D10.G4.1) with diluted translation mixtures. It counts as cell-based. Conditions: FIG. 2. The method, then:
FIG. 2. Biological activities of IL-1β proteins. Reticulocyte translation mixtures were incubated and assayed in the thymocyte co-stimulation assay as described previously (Jobling et al., 1988). The results are presented as [^3 H]thymidine incorporation (counts/minute)at various final dilutions of the translation mixtures.
The IL-1β proteins were synthesized by in vitro translation of SP6 or T7 messenger RNAs. In vitro protein synthesis was performed as described previously (Jobling et al., 1988; Jobling, S. A., and L. Gehrke [1987] Nature 325:622-625). The translational efficiency of all construct mRNAs was increased by replacing the untranslated leader sequence of the IL-1β mRNA with that of alfalfa mosaic virus RNA (Jobling et al., 1988; Jobling et al., 1987). All IL-1β protein translation products contain the amino-terminal methionine residue added during initiation of protein synthesis. The biological activity of the translation products was tested by quantitating [^3 H]thymidine incorporation by helper T-cells (D10.G4.1) (Kaye, Y., S. Porcelli, J. Tite, B. Jones, C. A. Janeway [1983] J. Exp. Med. 158:836-856) incubated in the presence of diluted translation reaction mixtures (FIG. 2).

Test [3] addresses T2, cell surface receptor of EL4 6.1 C10 murine thymoma cells (Mus musculus, UniProt P13504).
T2 construct: endogenous in cells; host or cells: EL4 6.1 C10 murine thymoma cells
T2 sequence (P13504 20-576): T1 sequence (P13504 20-576)
In words: SDS polyacrylamide gel analysis of specifically bound [35S]-labeled IL-1β proteins. Type of test: binding. Conditions: FIG. 3. The method, then: FIG. 3. Analysis of receptor binding. [^35 S]-labeled IL-1β proteins were incubated at 4° C. with murine EL.4 cells in the absence (-) or presence (+) or nonradioactive competitor recombinant IL-1β protein. Following incubation, the cells were sedimented through silicone oil as described previously (Jobling et al., 1988). The IL-1β proteins are identified at the top of the figure by numbers corresponding to amino acid positions. IL1(1-269) is proIL-1β, while IL1(117-269) corresponds to the mature IL-1β protein. The "native" and "Gly127 " notations at the bottom of the figure refer to the wild-type mature protein (Arg127) and the Arg127 →Gly127 mutein, respectively.
The receptor binding characteristics of the Arg127 →Gly127mutant protein were determined by Scatchard analysis and by sodium dodecyl sulfate (SDS) polyacrylamide gel analysis of specifically bound proteins (Dower et al., 1986; Jobling et al., 1988; Mosley et al., J. Biol. Chem. 1987). For the polyacrylamide gel analysis, IL-1β proteins were labeled with [^35 S]methionine during in vitro translation before cell surface receptor binding assays using EL4 6.1 C10 murine thymoma cells (Jobling et al., 1988; Mosley et al., Proc. Natl. Acad. Sci. USA, 1987; MacDonald, H. R., R. K. Lees, C. Bron [1985] J. Immunol. 135:3944) (FIG. 3). […]

Test [4] addresses T3, IL-1 receptor on EL.4 cells (Mus musculus, UniProt P13504).
T3 construct: incubated with EL.4 cells; endogenous in cells; host or cells: EL.4 (murine thymoma)
T3 sequence (P13504 20-576): T1 sequence (P13504 20-576)
In words: Equilibrium receptor binding of [35S]-labeled IL-1β peptides to EL.4 cells, Scatchard plot analysis. On the set-up: species or system murine. The conditions noted are these: for receptor affinity compared with wild-type IL-1β (in words): equilibrium binding analyses and competitive binding studies. The method, then: The conversion of IL-1 molecules by mutation of specific residues gives muteins having utility as IL-1 biological activity inhibitors. Specifically disclosed is the preparation and testing of human IL-1β.
The receptor binding characteristics of the Arg127 →Gly127mutant protein were determined by Scatchard analysis and by sodium dodecyl sulfate (SDS) polyacrylamide gel analysis of specifically bound proteins (Dower et al., 1986; Jobling et al., 1988; Mosley et al., J. Biol. Chem. 1987). For the polyacrylamide gel analysis, IL-1β proteins were labeled with [^35 S]methionine during in vitro translation before cell surface receptor binding assays using EL4 6.1 C10 murine thymoma cells (Jobling et al., 1988; Mosley et al., Proc. Natl. Acad. Sci. USA, 1987; MacDonald, H. R., R. K. Lees, C. Bron [1985] J. Immunol. 135:3944) (FIG. 3). […] Equilibrium binding experiments and Scatchard plot data (Table 1) confirmed the equivalence of binding constants.

For test [5] the following is noted: literature (Huang et al. 1987; Jobling et al. 1988); cited from earlier work.
Test [6] deals with T3, IL-1 receptor on EL.4 cells. Conditions: Jobling et al., 1988; cited from earlier work.

With “Arg127 →Gly127 mutant: human mature IL-1β mutein made by site-directed mutagenesis of the IL-1β cDNA converting Arg127 to Gly127”, the “competition with [35S]-labeled wild-type mature IL-1β for binding (in words)” value in test [1] is “reproducibly competed more effectively than the wild-type mature IL-1β”. In test [2], the “biological activity (half maximal), fold less than wild-type mature IL-1β” value was “at least 100 fold”; the “biological activity relative to that induced by mature IL-1β” value is 1%; the “half maximal biological activity compared with proIL-1β” value is “greater than that of proIL-1β”. Further, the “receptor binding properties by intensity of bound protein bands, compared with native mature IL-1β” value in test [3] is listed as “similar”. The “Relative binding (receptor binding affinity in relation to mature wild-type IL-1β = 100%)” value in test [4] (EL.4 cells, 4° C.) was 107%. The “receptor affinity compared with wild-type IL-1β (in words)” value in test [4] (listed as Arg127 →Gly127 mutant form of IL-1β) was “equal affinity”. In addition, the “receptor affinity compared with wild-type IL-1β (in words)” value in test [4] (listed as Arg127 →Gly127 mutant protein) is reported as “indistinguishable from that of the wild-type IL-1β protein”.
Take “proIL-1β: human IL-1β 31,000 dalton precursor protein, 269 amino acids”: the “competition with [35S]-labeled wild-type mature IL-1β for binding (in words)” value in test [1] is listed as “competed minimally”. For the same substance, the “biological activity (in words)” value in test [5] was “relatively low, but distinct biological activity”. Further, the “affinity for receptor, fold less than that of mature IL-1β” value in test [6] is 30 fold.
